Test results from patent US8394929B2, “Nogo receptor-mediated blockade of axonal growth” (Yale University, priority 2000, dated 2013).

Key:
NgRΔCT = biological target: T1, NgRΔCT (Mus musculus, UniProt Q99PI8); assay: AP-NgR binding to COS-7 cells transfected with NgRΔCT
T1 construct: encodes residues 26 to 305 and 443 to473 of mNgR; vector secretion signal (pSecTag2) (N); 6xHis (C); expressed in transfected cells; host or cells: COS-7
T1 sequence (Q99PI8 with tags, fused parts or gaps): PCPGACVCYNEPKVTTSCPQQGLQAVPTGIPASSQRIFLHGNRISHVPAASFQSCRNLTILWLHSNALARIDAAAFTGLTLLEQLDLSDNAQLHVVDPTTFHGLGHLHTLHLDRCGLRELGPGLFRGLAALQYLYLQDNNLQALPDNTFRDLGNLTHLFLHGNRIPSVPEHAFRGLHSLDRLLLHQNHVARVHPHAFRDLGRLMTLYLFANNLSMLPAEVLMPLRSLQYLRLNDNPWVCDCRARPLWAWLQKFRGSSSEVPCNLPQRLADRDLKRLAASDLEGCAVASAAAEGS
Experimental: (§1) A vector encoding AP-hNogo-A (1055-1120) was constructed as described in Fournier et al., supra). The vector encoding AP-NgR was made by ligating the mNgR coding sequence from residues 27-451 in frame with the signal sequence-6× His—placental alkaline phosphatase (AP) sequence of the vector known as pAP-6 (Nakamura et al., Neuron 2: 1093-1100, 1988).
(§2) NgR was tested for the ability to self-associate. For this study, mNgR [hereinafter, wtNgR or WT] and mNgR deletion mutants (see FIG. 18A) were transfected into COS-7 cells. Forty-eight hours after the transfection, the transfected COS-7 cells were washed with HBH. Cells were then incubated for 2 hours at 23° C. with a conditioned medium containing […] diluted in HBH. AP-fusion protein was detected as previously described for AP-Sema3A (Takahashi et al., Nature Neurosci. 1:487-493, 1998). Similar to the AP-Nogo binding profile, AP-NgR bound to wtNgR and NgRΔCT (FIG. 23). Nogo treatment had little, if any, effect on the NgR-NgR interaction (data not shown). […] The same NgR domains are required for GST-hNogo-A (1055-1120) binding and NgR oligomerization

NgR deletion mutants = assay: AP-NgR binding to COS-7 cells transfected with other NgR deletion mutants; set-up: species or system mouse
Experimental: as §1, §2

wtNgR = biological target: T2, wtNgR (Mus musculus, UniProt Q99PI8); assay: AP-NgR binding to COS-7 cells transfected with wtNgR
T2 construct: wtNgR encodes residues 1 to 473 of mNgR; vector secretion signal (pSecTag2) (N); 6xHis (C); expressed in transfected cells; host or cells: COS-7
T2 sequence (Q99PI8 27-473): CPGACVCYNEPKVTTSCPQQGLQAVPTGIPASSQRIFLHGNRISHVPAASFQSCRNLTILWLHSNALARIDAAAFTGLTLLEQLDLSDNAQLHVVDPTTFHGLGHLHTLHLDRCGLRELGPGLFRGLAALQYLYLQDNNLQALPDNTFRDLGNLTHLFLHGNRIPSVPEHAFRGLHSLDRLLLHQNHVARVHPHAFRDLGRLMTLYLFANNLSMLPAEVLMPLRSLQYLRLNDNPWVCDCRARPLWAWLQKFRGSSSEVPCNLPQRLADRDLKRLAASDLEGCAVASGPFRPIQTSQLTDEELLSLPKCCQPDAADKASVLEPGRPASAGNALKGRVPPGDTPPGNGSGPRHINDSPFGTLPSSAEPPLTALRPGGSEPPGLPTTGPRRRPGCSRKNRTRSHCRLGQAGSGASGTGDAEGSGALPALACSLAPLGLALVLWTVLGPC
Experimental: as §1, §2

B1: AP-NgR: mNgR residues 27-451 fused to signal sequence-6x His-placental alkaline phosphatase (protein)
chain: HHHHHHIIPVEEENPDFWNREAAEALGAAKKLQPAQTAAKNLIIFLGDGMGVSTVTAARILKGQKKDKLGPEIPLAMDRFPYVALSKTYNVDKHVPDSGATATAYLCGVKGNFQTIGLSAAARFNQCNTTRGNEVISVMNRAKKAGKSVGVVTTTRVQHASPAGTYAHTVNRNWYSDADVPASARQEGCQDIATQLISNMDIDVILGGGRKYMFRMGTPDPEYPDDYSQGGTRLDGKNLVQEWLAKRQGARYVWNRTELMQASLDPSVTHLMGLFEPGDMKYEIHRDSTLDPSLMEMTEAALRLLSRNPRGFFLFVEGGRIDHGHHESRAYRALTETIMFDDAIERAGQLTSEEDTLSLVTADHSHVFSFGGYPLRGSSIFGLAPGKARDRKAYTVLLYGNGPGYVLKDGARPDVTESESGSPEYRQQSAVPLDEETHAGEDVAVFARGPQAHLVHGVQEQTFIAHVMAFAACLEPYTACDLAPPAGTTDAAHPGCPGACVCYNEPKVTTSCPQQGLQAVPTGIPASSQRIFLHGNRISHVPAASFQSCRNLTILWLHSNALARIDAAAFTGLTLLEQLDLSDNAQLHVVDPTTFHGLGHLHTLHLDRCGLRELGPGLFRGLAALQYLYLQDNNLQALPDNTFRDLGNLTHLFLHGNRIPSVPEHAFRGLHSLDRLLLHQNHVARVHPHAFRDLGRLMTLYLFANNLSMLPAEVLMPLRSLQYLRLNDNPWVCDCRARPLWAWLQKFRGSSSEVPCNLPQRLADRDLKRLAASDLEGCAVASGPFRPIQTSQLTDEELLSLPKCCQPDAADKASVLEPGRPASAGNALKGRVPPGDTPPGNGSGPRHINDSPFGTLPSSAEPPLTALRPGGSEPPGLPTTGPRRRPGCSRKNRTRSHCRLGQAGSGASGTGDAEGSGALP
binding (in words) (NgRΔCT): bound | binding (in words) (NgR deletion mutants): did not bind | binding (in words) (wtNgR): bound
